Results: patent publication US20230295227A1, “COMPOUNDS FOR USE IN DIAGNOSIS AND/OR MONITORING OF FIBROSIS” (ANTAROS TRACER AB, priority 2020, published 2023)
Read-outs that look alike come from different tables or passages of the source.

Tests used:
[1] = Stability testing of peptides at pH 7.4 (PBS), HPLC Method B; format: physicochemical
Experimental: (§1) Analytical high performance liquid chromatography (HPLC) was performed on a Dionex UltiMate 3000 HPLC system with a Bruker amazon SL ion trap mass spectrometer and detection by UV (diode array detector, 214, 254, and 280 nm) and electrospray ionization (ESI) MS using a Penomenex Kinetex C18 column (50×3.0 mm, 2.6 μm particle size, 100 Åpore size) and a Penomenex Kinetex Biphenyl column (50×4.6 mm, 2.6 μm particle size, 100 Åpore size). A gradient of H2O/CH3CN/0.05% HCOOH was used at a flow rate of 1.5 mL/min.
Method B: Detection at 214 nm column: Penomenex Kinetex Biphenyl column (50×4.6 mm, 2.6 μm particle size, 100 Åpore size) solvent: H2O+0.05% HCOOH: CH3CN+0.05% HCOOH (flow 1.5 ml/min) […]
(§2) For stability testing, 500 μmol pure compound was dissolved in 1 mL PBS buffer (pH 7.4), or 1 mL sodium acetate buffer (pH 4.5, 100 mM). For the peptides stored in PBS, the solutions were stored for 14 days at 4° C. and 23° C. At 0 h, 1 day, 7 days and 14 days, the solutions were analyzed by HPLC (analytical HPLC Method A and Method B).
(§3) The “% Purity” at each time point is defined by the % Relative purity at time point “n” (n=1 day, 7 days, 14 days in pH 7.4 PBS and 1 day at pH 4.5 NaAc) in relation to the % Relative purity at t0 following the equation:
(§4) % Purity at tn=[(% Relative purity tn)×100)]/% Relative purity t0 […]
Samples were incubated up to 14 days at 23° C. and 4° C. and were analyzed using HPLC Method B.

[2] = Stability testing of peptides at pH 7.4 (PBS), HPLC Method A; format: physicochemical
Experimental: as §1
Method A: Detection at 214 nm column: Penomenex Kinetex C18 (50×3.0 mm, 2.6 μm particle size, 100 Åpore size) solvent: H2O+0.05% HCOOH: CH3CN+0.05% HCOOH (flow 1.5 ml/min) […]
as §2, §3, §4
Samples were incubated up to 14 days at 23° C. and 4° C. and were analyzed using HPLC Method A.

[3] = Stability testing of peptides at pH 4.5 (sodium acetate buffer), HPLC Method B; format: physicochemical
Experimental: as §1
Method B: Detection at 214 nm
For the peptides stored in sodium acetate buffer (pH 4.5, 100 mM) the solutions were analyzed by HPLC (analytical HPLC Method B) after 0 h, and 1 day incubation at 4° C. and 23° C.
as §3
% Purity at tn=[(% Relative purity tn)×100)]/% Relative purity t0
Samples were incubated for 1 day at 23° C. and 4° C. and were analyzed using HPLC Method B.

[4] = rat, in vivo; cited from earlier work
[5] = in vivo; set-up: species or system Sprague Dawley rats; details: rat
Experimental: Sprague Dawley rats (obtained from Taconic, n=22, male, healthy, weight 287±25 g) were used for ex vivo organ distribution assessment of biodistribution and dosimetry.
Five MBq of [^68Ga]Ga-1 (n=10) (corresponding to 5-10 μg) in phosphate-buffered saline (PBS, pH 7.4) was injected intravenously as a bolus to conscious rats. The animals were euthanized by a CO2—O2 mixture 10, 20, 40, 60 and 120 minutes post-injection. The radioactivity of the excised organs was measured in a gamma counter. Samples from blood, heart, lung, liver, spleen, adrenal glands, kidneys, intestines, with or without contents, muscle, testis, bone, brain, pancreas, urine bladder and bone marrow were collected. The remaining carcass was also measured in order to monitor the radioactivity elimination and recovery. The radioactivity readings were decay-corrected to the time of the injection, and the results were expressed as standardized uptake values (SUV).
The biodistribution of [^68Ga]Ga-1 ([^68Ga]Ga—NH—(CH2CH2O)2—CH2—C(O)-LRELHLNNN—OH) was carried out as described above.

[6] = mouse, in vivo; cited from earlier work
[7] = male, Sprague Dawley, iv, 5 MBq, total radioactivity

## CC(C)C[C@H](NC(=O)COCCOCCNC(=O)CN1CCN(CC(=O)O)CCN(CC(=O)O)CCN(CC(=O)O)CC1)C(=O)N[C@@H](CCCNC(=N)N)C(=O)N[C@@H](CCC(=O)O)C(=O)N[C@@H](CC(C)C)C(=O)N[C@@H](Cc1c[nH]cn1)C(=O)N[C@@H](CC(C)C)C(=O)N[C@@H](CC(N)=O)C(=O)N[C@@H](CC(N)=O)C(=O)N[C@@H](CC(N)=O)C(=O)O [Compound 1, DOTA-NH—(CH2CH2O)2—CH2—C(O)-L-R-E-L-H-L-N—N—N—OH]
[1]; 4° C.
  % Purity after 1 day: 100%
  % Purity after 7 days: >98%
  % Purity after 14 days: >96%
[1]; 23° C.
  % Purity after 1 day: >99%
  % Purity after 7 days: >98%
  % Purity after 14 days: >97%
[2]; 4° C.
  % Purity after 1 day: >99%
  % Purity after 7 days: >99%
  % Purity after 14 days: >99%
[2]; 23° C.
  % Purity after 1 day: >99%
  % Purity after 7 days: >98%
  % Purity after 14 days: >97%
[3]; 4° C.
  % Purity after 1 day: >95%
[3]; 23° C.
  % Purity after 1 day: >96%

## DOTA-L-R-E-L-H-L-N—N—N—OH [Compound 12]
[1]; 4° C.
  % Purity after 1 day: >99%
  % Purity after 7 days: >99%
[1]; 23° C.
  % Purity after 1 day: >99%
  % Purity after 7 days: >95%
[2]; 4° C.
  % Purity after 1 day: >99%
  % Purity after 7 days: >99%
[2]; 23° C.
  % Purity after 1 day: >99%
  % Purity after 7 days: >96%
[3]; 4° C.
  % Purity after 1 day: >98%
[3]; 23° C.
  % Purity after 1 day: >98%

## [^68Ga]Ga-NODAGA-Collagelin [Comparative Tracer 3]
[4]
  SUV Kidney: 11.1
  SUV Liver: 0.8

## CC(C)C[C@H](NC(=O)COCCOCCNC(=O)CN1CCN(CC(=O)O)CCN(CC(=O)O)CCN(CC(=O)O)CC1)C(=O)N[C@@H](CCCNC(=N)N)C(=O)N[C@@H](CCC(=O)O)C(=O)N[C@@H](CC(C)C)C(=O)N[C@@H](Cc1c[nH]cn1)C(=O)N[C@@H](CC(C)C)C(=O)N[C@@H](CC(N)=O)C(=O)N[C@@H](CC(N)=O)C(=O)N[C@@H](CC(N)=O)C(=O)O [[^68Ga]Ga-1, [^68Ga]Ga-DOTA-NH—(CH2CH2O)2—CH2—C(O)-LRELHLNNN—OH, metal not drawn]
[5]; [7]
  SUV at 1 h: < 1 SUV
  SUV at 2 h: 1 SUV
[5]
  SUV Kidney: 1.7
  SUV Liver: 0.7

## DOTA-NH—(CH2CH2O)2—CH2—C(O)-L-R-E-L-H—V-N—N—N—OH [Compound 6]
[1]; 4° C.
  % Purity after 1 day: >99%
  % Purity after 7 days: >99%
[1]; 23° C.
  % Purity after 1 day: >99%
  % Purity after 7 days: >99%
[2]; 4° C.
  % Purity after 1 day: >99%
  % Purity after 7 days: >99%
[2]; 23° C.
  % Purity after 1 day: 100%
  % Purity after 7 days: >99%
[3]; 4° C.
  % Purity after 1 day: >99%
[3]; 23° C.
  % Purity after 1 day: >99%

## [^68Ga]Ga-NOTA-Collagelin [Comparative Tracer 2]
[4]
  SUV Kidney: 6.2
  SUV Liver: 0.5
[6]
  SUV Kidney: 10

## [^68Ga]Ga-DOTA-CBP8 [Comparative Tracer 1]
[6]
  SUV Kidney: 10
  SUV Liver: 0.4

## DOTA-NH—(CH2CH2O)3—CH2—C(O)-L-R-E-L-H-L-N—N—N—OH [Compound 11]
[1]; 4° C.
  % Purity after 1 day: >99%
  % Purity after 7 days: >99%
[1]; 23° C.
  % Purity after 1 day: >99%
  % Purity after 7 days: >99%
[2]; 4° C.
  % Purity after 1 day: >99%
  % Purity after 7 days: >97%
[2]; 23° C.
  % Purity after 1 day: >99%
  % Purity after 7 days: >96%
[3]; 4° C.
  % Purity after 1 day: >99%
[3]; 23° C.
  % Purity after 1 day: >98%

## H2N-L-R-E-L-H-L-N—N—N—K(DOTA-NH—(CH2CH2O)2—CH2—C(O))—NH2 [Compound 13]
[1]; 4° C.
  % Purity after 1 day: >99%
  % Purity after 7 days: >99%
[1]; 23° C.
  % Purity after 1 day: >99%
  % Purity after 7 days: >99%
[2]; 4° C.
  % Purity after 1 day: 100%
  % Purity after 7 days: 100%
[2]; 23° C.
  % Purity after 1 day: 100%
  % Purity after 7 days: 100%
[3]; 4° C.
  % Purity after 1 day: >99%
[3]; 23° C.
  % Purity after 1 day: >99%
